From paper PMC7954794, “Protein context shapes the specificity of SH3 domain-mediated interactions in vivo” (Nature Communications, 2021)

System: growth of yeast strains under 51 stress conditions
Test: Growth assays in 51 stress conditions (Fig. 1E-F, S2D, S5B)
Type: cell-based, Saccharomyces cerevisiae
Parameters: key to Growth (Fig. S2D) / growth of ABP1 SH3-swapped strains in stress condition: log2 colony size, average of median per strain (growth score)
Details: FigS2D
Outline: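 Yeast WT, SH3-deleted, KO, SH3-swapped and SH3-shuffled strains pinned in 1536 format, 12 replicates each; pregrown on YPD 2 days at 30 °C, then replicated onto 51 media at 37 °C and imaged every 2 h. Growth score = mean of per-plate median log2 colony size at 74 h.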

B1: YSC84 (protein, UniProt P32793 1-468, looked up)
Protein YSC84: MGINNPIPRSLKSETKKAAKVLRSFVKPNQVFGADQVIPPYVLKRAKGLAIITVLKAGFLFSGRAGSGVIVARLKDGTWSAPSAIAMAGAGAGGMVGVELTDFVFILNSEEAVRSFSEFGTITLGGNVSVSAGPLGRSAEAAASASTGGVSAVFAYSKSKGLFAGVSVEGSAILERREANRKFYGDNCTSKMILSGRVKVPPAADPLLRILESRAFNFTRHDHDDNASGDDFYDDGQYSDNTSHYYDDIPDSFDSTDESSTRPNTRSSRRRGMSLGSRSRYDDDYDDDGYGRGRGYGDFDSEDEDYDYGRSPNRNSSRNRGPQIDRGTKPRANTRWEDDLYDRDTEYSRPNHSGRDYDNTRGNRRGYGRERGYSLGHGPTHPSNMSNVDDLSHKMSKTGLGNESTATNSATPTAVALYNFAGEQPGDLAFKKGDVITILKKSDSQNDWWTGRTNGKEGIFPANYVRVS
- growth of ABP1 SH3-swapped strains in stress condition (Bathophenanthroline.0.1uM): 10.863
- growth of ABP1 SH3-swapped strains in stress condition (Bathophenanthroline.10uM): 10.6791
- growth of ABP1 SH3-swapped strains in stress condition (Bathophenanthroline.1uM): 10.8306
- growth of ABP1 SH3-swapped strains in stress condition (CaCl2.100mM): 10.8211
- growth of ABP1 SH3-swapped strains in stress condition (CaCl2.250mM): 10.7492
- growth of ABP1 SH3-swapped strains in stress condition (CaCl2.500mM): 10.2924
- growth of ABP1 SH3-swapped strains in stress condition (Caffein.10mM): 10.0875
- growth of ABP1 SH3-swapped strains in stress condition (Caffein.2mM): 11.0461
- growth of ABP1 SH3-swapped strains in stress condition (CdCl2.100uM): 9.612
- growth of ABP1 SH3-swapped strains in stress condition (CdCl2.10uM): 10.8942
- growth of ABP1 SH3-swapped strains in stress condition (CdCl2.50uM): 9.965
- growth of ABP1 SH3-swapped strains in stress condition (CuSO4.1mM): 10.4219
- growth of ABP1 SH3-swapped strains in stress condition (CuSO4.5mM): 8.049
- growth of ABP1 SH3-swapped strains in stress condition (Cycloheximide.0.05.uM): 11.0738
- growth of ABP1 SH3-swapped strains in stress condition (Cycloheximide.0.2.uM): 10.6488
- growth of ABP1 SH3-swapped strains in stress condition (Cycloheximide.0.5.uM): 10.1375
- growth of ABP1 SH3-swapped strains in stress condition (DMSO.2.): 11.0761
- growth of ABP1 SH3-swapped strains in stress condition (DMSO.6.): 9.8918
- growth of ABP1 SH3-swapped strains in stress condition (DMSO.8.): 9.375
- growth of ABP1 SH3-swapped strains in stress condition (Ethanol.2.): 10.7982
- growth of ABP1 SH3-swapped strains in stress condition (Ethanol.6.): 10.2832
- growth of ABP1 SH3-swapped strains in stress condition (Ethanol.8.): 10.0513
- growth of ABP1 SH3-swapped strains in stress condition (Galactose.2.): 10.753
- growth of ABP1 SH3-swapped strains in stress condition (Glycerol.2.): 9.905
- growth of ABP1 SH3-swapped strains in stress condition (Hydroxyurea.25mM): 10.7776
- growth of ABP1 SH3-swapped strains in stress condition (Hygromycin.190uM): 10.9721
- growth of ABP1 SH3-swapped strains in stress condition (Hygromycin.19uM): 10.9865
- growth of ABP1 SH3-swapped strains in stress condition (Hygromycin.95uM): 11.0398
- growth of ABP1 SH3-swapped strains in stress condition (MMS.0.004.): 10.997
- growth of ABP1 SH3-swapped strains in stress condition (MMS.0.02.): 10.758
- growth of ABP1 SH3-swapped strains in stress condition (MMS.0.04.): 10.0132
- growth of ABP1 SH3-swapped strains in stress condition (Menadione.100uM): 10.5944
- growth of ABP1 SH3-swapped strains in stress condition (Menadione.200uM): 10.563
- growth of ABP1 SH3-swapped strains in stress condition (Menadione.50uM): 10.853
- growth of ABP1 SH3-swapped strains in stress condition (NaCl.0.25M): 10.8517
- growth of ABP1 SH3-swapped strains in stress condition (NaCl.1M): 9.6266
- growth of ABP1 SH3-swapped strains in stress condition (Nitroquinoline.10uM): 10.6185
- growth of ABP1 SH3-swapped strains in stress condition (Nitroquinoline.50uM): 10.6333
- growth of ABP1 SH3-swapped strains in stress condition (Nystatin.0.01uM): 10.9762
- growth of ABP1 SH3-swapped strains in stress condition (Nystatin.0.1uM): 10.9958
- growth of ABP1 SH3-swapped strains in stress condition (Raffinose.2.): 11.0249
- growth of ABP1 SH3-swapped strains in stress condition (Rapamycin.10nM): 9.871
- growth of ABP1 SH3-swapped strains in stress condition (Rapamycin.50nM): 9.5402
- growth of ABP1 SH3-swapped strains in stress condition (SC.pH3): 10.4227
- growth of ABP1 SH3-swapped strains in stress condition (SC.pH6): 10.9991
- growth of ABP1 SH3-swapped strains in stress condition (SDS.0.01.): 11.0315
- growth of ABP1 SH3-swapped strains in stress condition (SDS.0.02.): 11.0179
- growth of ABP1 SH3-swapped strains in stress condition (SDS.0.05.): 10.9653
- growth of ABP1 SH3-swapped strains in stress condition (Sorbitol.10mM): 10.9675
- growth of ABP1 SH3-swapped strains in stress condition (Sorbitol.1mM): 11.0498
- growth of ABP1 SH3-swapped strains in stress condition (Sorbitol.5mM): 10.8766

B2: SHO1 (protein, UniProt P40073 1-367, looked up)
High osmolarity signaling …: MSISSKIRPTPRKPSRMATDHSFKMKKFYADPFAISSISLAIVSWVIAIGGSISSASTNESFPRFTWWGIVYQFLIICSLMLFYCFDLVDHYRIFITTSIAVAFVYNTNSATNLVYADGPKKAAASAGVILLSIINLIWILYYGGDNASPTNRWIDSFSIKGIRPSPLENSLHRARRRGNRNTTPYQNNVYNDAIRDSGYATQFDGYPQQQPSHTNYVSSTALAGFENTQPNTSEAVNLHLNTLQQRINSASNAKETNDNSNNQTNTNIGNTFDTDFSNGNTETTMGDTLGLYSDIGDDNFIYKAKALYPYDADDDDAYEISFEQNEILQVSDIEGRWWKARRANGETGIIPSNYVQLIDGPEEMHR
- growth of ABP1 SH3-swapped strains in stress condition (Bathophenanthroline.0.1uM): 10.8666
- growth of ABP1 SH3-swapped strains in stress condition (Bathophenanthroline.10uM): 10.6802
- growth of ABP1 SH3-swapped strains in stress condition (Bathophenanthroline.1uM): 10.8165
- growth of ABP1 SH3-swapped strains in stress condition (CaCl2.100mM): 10.8196
- growth of ABP1 SH3-swapped strains in stress condition (CaCl2.250mM): 10.7666
- growth of ABP1 SH3-swapped strains in stress condition (CaCl2.500mM): 10.33
- growth of ABP1 SH3-swapped strains in stress condition (Caffein.10mM): 9.975
- growth of ABP1 SH3-swapped strains in stress condition (Caffein.2mM): 10.938
- growth of ABP1 SH3-swapped strains in stress condition (CdCl2.100uM): 9.34
- growth of ABP1 SH3-swapped strains in stress condition (CdCl2.10uM): 10.884
- growth of ABP1 SH3-swapped strains in stress condition (CdCl2.50uM): 9.827
- growth of ABP1 SH3-swapped strains in stress condition (CuSO4.1mM): 10.4931
- growth of ABP1 SH3-swapped strains in stress condition (CuSO4.5mM): 7.806
- growth of ABP1 SH3-swapped strains in stress condition (Cycloheximide.0.05.uM): 11.0905
- growth of ABP1 SH3-swapped strains in stress condition (Cycloheximide.0.2.uM): 10.7035
- growth of ABP1 SH3-swapped strains in stress condition (Cycloheximide.0.5.uM): 10.0394
- growth of ABP1 SH3-swapped strains in stress condition (DMSO.2.): 11.0205
- growth of ABP1 SH3-swapped strains in stress condition (DMSO.6.): 9.808
- growth of ABP1 SH3-swapped strains in stress condition (DMSO.8.): 8.962
- growth of ABP1 SH3-swapped strains in stress condition (Ethanol.2.): 10.7684
- growth of ABP1 SH3-swapped strains in stress condition (Ethanol.6.): 10.4049
- growth of ABP1 SH3-swapped strains in stress condition (Ethanol.8.): 10.2263
- growth of ABP1 SH3-swapped strains in stress condition (Galactose.2.): 10.8154
- growth of ABP1 SH3-swapped strains in stress condition (Glycerol.2.): 9.771
- growth of ABP1 SH3-swapped strains in stress condition (Hydroxyurea.25mM): 10.7838
- growth of ABP1 SH3-swapped strains in stress condition (Hygromycin.190uM): 10.9371
- growth of ABP1 SH3-swapped strains in stress condition (Hygromycin.19uM): 10.9563
- growth of ABP1 SH3-swapped strains in stress condition (Hygromycin.95uM): 10.9936
- growth of ABP1 SH3-swapped strains in stress condition (MMS.0.004.): 10.9851
- growth of ABP1 SH3-swapped strains in stress condition (MMS.0.02.): 10.7181
- growth of ABP1 SH3-swapped strains in stress condition (MMS.0.04.): 10.0309
- growth of ABP1 SH3-swapped strains in stress condition (Menadione.100uM): 10.5941
- growth of ABP1 SH3-swapped strains in stress condition (Menadione.200uM): 10.4073
- growth of ABP1 SH3-swapped strains in stress condition (Menadione.50uM): 10.7963
- growth of ABP1 SH3-swapped strains in stress condition (NaCl.0.25M): 10.8224
- growth of ABP1 SH3-swapped strains in stress condition (NaCl.1M): 9.702
- growth of ABP1 SH3-swapped strains in stress condition (Nitroquinoline.10uM): 10.7342
- growth of ABP1 SH3-swapped strains in stress condition (Nitroquinoline.50uM): 10.7229
- growth of ABP1 SH3-swapped strains in stress condition (Nystatin.0.01uM): 11.0733
- growth of ABP1 SH3-swapped strains in stress condition (Nystatin.0.1uM): 11.0089
- growth of ABP1 SH3-swapped strains in stress condition (Raffinose.2.): 11.0381
- growth of ABP1 SH3-swapped strains in stress condition (Rapamycin.10nM): 9.786
- growth of ABP1 SH3-swapped strains in stress condition (Rapamycin.50nM): 9.424
- growth of ABP1 SH3-swapped strains in stress condition (SC.pH3): 10.389
- growth of ABP1 SH3-swapped strains in stress condition (SC.pH6): 11.0143
- growth of ABP1 SH3-swapped strains in stress condition (SDS.0.01.): 10.9726
- growth of ABP1 SH3-swapped strains in stress condition (SDS.0.02.): 10.9605
- growth of ABP1 SH3-swapped strains in stress condition (SDS.0.05.): 10.8495
- growth of ABP1 SH3-swapped strains in stress condition (Sorbitol.10mM): 10.9902
- growth of ABP1 SH3-swapped strains in stress condition (Sorbitol.1mM): 11.0334
- growth of ABP1 SH3-swapped strains in stress condition (Sorbitol.5mM): 10.9353
